Paper PMC2635920 (Nature structural & molecular biology, 2009)
Each block holds one binder with its values, some of them ahead of it.

T1: Sec39p, full-length (residues 1-709) (S. cerevisiae, UniProt Q12745 1-709)
T1 sequence (looked up): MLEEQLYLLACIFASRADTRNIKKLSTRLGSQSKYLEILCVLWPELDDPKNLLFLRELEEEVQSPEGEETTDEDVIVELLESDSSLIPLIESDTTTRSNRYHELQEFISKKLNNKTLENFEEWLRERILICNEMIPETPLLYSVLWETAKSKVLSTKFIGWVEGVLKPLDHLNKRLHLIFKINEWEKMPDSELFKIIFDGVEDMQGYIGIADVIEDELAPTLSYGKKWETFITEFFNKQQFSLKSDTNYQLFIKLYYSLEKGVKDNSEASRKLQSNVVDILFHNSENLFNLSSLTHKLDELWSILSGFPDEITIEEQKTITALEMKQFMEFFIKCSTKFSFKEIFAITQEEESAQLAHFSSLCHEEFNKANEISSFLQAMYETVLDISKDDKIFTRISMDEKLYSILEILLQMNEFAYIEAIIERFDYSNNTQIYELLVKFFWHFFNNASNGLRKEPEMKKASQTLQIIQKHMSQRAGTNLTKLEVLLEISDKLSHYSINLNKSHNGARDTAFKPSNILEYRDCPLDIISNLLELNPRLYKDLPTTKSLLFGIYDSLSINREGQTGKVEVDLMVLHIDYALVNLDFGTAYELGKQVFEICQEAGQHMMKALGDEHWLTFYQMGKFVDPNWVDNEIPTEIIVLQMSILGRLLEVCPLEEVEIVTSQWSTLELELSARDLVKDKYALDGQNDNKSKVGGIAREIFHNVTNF

T2: Dsl1p residues 37-339, as the C-terminal part of the Tip20p-Dsl1p fusion protein (S. cerevisiae, UniProt P53847 37-339)
T2 sequence (looked up): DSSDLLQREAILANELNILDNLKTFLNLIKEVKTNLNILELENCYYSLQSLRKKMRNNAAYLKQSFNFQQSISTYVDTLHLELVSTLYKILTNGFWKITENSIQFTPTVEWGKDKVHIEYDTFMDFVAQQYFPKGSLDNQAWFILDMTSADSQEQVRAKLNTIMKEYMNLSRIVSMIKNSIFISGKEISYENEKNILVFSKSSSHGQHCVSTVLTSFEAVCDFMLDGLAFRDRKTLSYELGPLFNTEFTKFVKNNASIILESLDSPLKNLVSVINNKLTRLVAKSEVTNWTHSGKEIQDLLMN

T3: Dsl1p, full-length (residues 1-754) (S. cerevisiae, UniProt P53847 1-754)
T3 sequence (looked up): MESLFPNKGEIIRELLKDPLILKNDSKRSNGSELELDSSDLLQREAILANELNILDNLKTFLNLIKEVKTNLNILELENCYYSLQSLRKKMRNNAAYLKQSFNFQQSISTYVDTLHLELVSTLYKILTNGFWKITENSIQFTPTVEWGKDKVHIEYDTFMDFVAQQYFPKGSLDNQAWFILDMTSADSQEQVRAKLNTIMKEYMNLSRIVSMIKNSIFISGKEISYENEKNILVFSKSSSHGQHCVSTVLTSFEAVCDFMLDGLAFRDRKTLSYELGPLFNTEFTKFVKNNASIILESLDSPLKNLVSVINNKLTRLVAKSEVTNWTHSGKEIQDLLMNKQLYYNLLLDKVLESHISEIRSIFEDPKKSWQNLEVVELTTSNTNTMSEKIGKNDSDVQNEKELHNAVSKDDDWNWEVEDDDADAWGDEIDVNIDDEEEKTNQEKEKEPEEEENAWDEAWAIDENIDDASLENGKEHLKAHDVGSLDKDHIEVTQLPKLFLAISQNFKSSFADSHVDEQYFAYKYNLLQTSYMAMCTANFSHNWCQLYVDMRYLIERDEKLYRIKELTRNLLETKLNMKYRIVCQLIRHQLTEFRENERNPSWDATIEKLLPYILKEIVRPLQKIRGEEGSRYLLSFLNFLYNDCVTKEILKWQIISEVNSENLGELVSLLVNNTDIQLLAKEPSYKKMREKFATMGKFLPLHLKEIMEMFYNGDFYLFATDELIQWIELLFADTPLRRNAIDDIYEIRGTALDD

T4: Dsl1p-Sec39p complex (S. cerevisiae, UniProt P53847 1-754; Q12745 1-709)
T4 sequence (looked up) 1: T3 sequence (looked up)
T4 sequence (looked up) 2: T1 sequence (looked up)

B1: Dsl1ΔC (L41E) (domain or fragment, S. cerevisiae, UniProt P53847 1-361, looked up)
chain: MESLFPNKGEIIRELLKDPLILKNDSKRSNGSELELDSSDELQREAILANELNILDNLKTFLNLIKEVKTNLNILELENCYYSLQSLRKKMRNNAAYLKQSFNFQQSISTYVDTLHLELVSTLYKILTNGFWKITENSIQFTPTVEWGKDKVHIEYDTFMDFVAQQYFPKGSLDNQAWFILDMTSADSQEQVRAKLNTIMKEYMNLSRIVSMIKNSIFISGKEISYENEKNILVFSKSSSHGQHCVSTVLTSFEAVCDFMLDGLAFRDRKTLSYELGPLFNTEFTKFVKNNASIILESLDSPLKNLVSVINNKLTRLVAKSEVTNWTHSGKEIQDLLMNKQLYYNLLLDKVLESHISEIRS
B2: Dsl1ΔN1 (Dsl1p residues 340-754) (domain or fragment, S. cerevisiae, UniProt P53847 340-754, looked up)
chain: KQLYYNLLLDKVLESHISEIRSIFEDPKKSWQNLEVVELTTSNTNTMSEKIGKNDSDVQNEKELHNAVSKDDDWNWEVEDDDADAWGDEIDVNIDDEEEKTNQEKEKEPEEEENAWDEAWAIDENIDDASLENGKEHLKAHDVGSLDKDHIEVTQLPKLFLAISQNFKSSFADSHVDEQYFAYKYNLLQTSYMAMCTANFSHNWCQLYVDMRYLIERDEKLYRIKELTRNLLETKLNMKYRIVCQLIRHQLTEFRENERNPSWDATIEKLLPYILKEIVRPLQKIRGEEGSRYLLSFLNFLYNDCVTKEILKWQIISEVNSENLGELVSLLVNNTDIQLLAKEPSYKKMREKFATMGKFLPLHLKEIMEMFYNGDFYLFATDELIQWIELLFADTPLRRNAIDDIYEIRGTALDD
B3: Tip20p, full-length (residues 1-701) (natural protein, S. cerevisiae, UniProt P33891 1-701, looked up)
chain: MNGIDDLLNINDRIKQVQNERNELASKLQNLKQSLASNDTEVALSEVIAQDIIEVGASVEGLEQLRAKYGDLQILNKLEKVAVQQTQMQAGVDKLDSFERQLDELAEQPPDQFTLDDVKALHSKLTSVFATVPQINNIDSQYAAYNKLKSKVTGKYNDVIIQRLATNWSNTFDQKLLEAQWDTQKFASTSVGLVKCLRENSTKLYQLSLLYLPLEEETQNGDSERPLSRSNNNQEPVLWNFKSLANNFNVRFTYHFHATSSSSKIETYFQFLNDYLAENLYKCINIFHDDCNGLTKPVIHEQFINYVLQPIRDKVRSTLFQNDLKTLIVLISQILATDKNLLNSFHYHGLGLVSLISDEVWEKWINYEVEMANRQFINITKNPEDFPKSSQNFVKLINKIYDYLEPFYDLDFDLLVRYKLMTCSLIFMNLTSSYLDYILTVDSLNETRTKEQELYQTMAKLQHVNFVYRKIKSLSSNFIFIQLTDIVNSTESKKYNSLFQNVENDYEKAMSTDMQNSIVHRIQKLLKETLRNYFKISTWSTLEMSVDENIGPSSVPSAELVNSINVLRRLINKLDSMDIPLAISLKVKNELLNVIVNYFTESILKLNKFNQNGLNQFLHDFKSLSSILSLPSHATNYKCMSLHELVKILKLKYDPNNQQFLNPEYIKTGNFTSLKEAYSIKYLKDTKIQDALYRIIYGNIL
B4: Dsl1ΔN (Dsl1p residues 57-754) (domain or fragment, S. cerevisiae, UniProt P53847 57-754, looked up)
chain: NLKTFLNLIKEVKTNLNILELENCYYSLQSLRKKMRNNAAYLKQSFNFQQSISTYVDTLHLELVSTLYKILTNGFWKITENSIQFTPTVEWGKDKVHIEYDTFMDFVAQQYFPKGSLDNQAWFILDMTSADSQEQVRAKLNTIMKEYMNLSRIVSMIKNSIFISGKEISYENEKNILVFSKSSSHGQHCVSTVLTSFEAVCDFMLDGLAFRDRKTLSYELGPLFNTEFTKFVKNNASIILESLDSPLKNLVSVINNKLTRLVAKSEVTNWTHSGKEIQDLLMNKQLYYNLLLDKVLESHISEIRSIFEDPKKSWQNLEVVELTTSNTNTMSEKIGKNDSDVQNEKELHNAVSKDDDWNWEVEDDDADAWGDEIDVNIDDEEEKTNQEKEKEPEEEENAWDEAWAIDENIDDASLENGKEHLKAHDVGSLDKDHIEVTQLPKLFLAISQNFKSSFADSHVDEQYFAYKYNLLQTSYMAMCTANFSHNWCQLYVDMRYLIERDEKLYRIKELTRNLLETKLNMKYRIVCQLIRHQLTEFRENERNPSWDATIEKLLPYILKEIVRPLQKIRGEEGSRYLLSFLNFLYNDCVTKEILKWQIISEVNSENLGELVSLLVNNTDIQLLAKEPSYKKMREKFATMGKFLPLHLKEIMEMFYNGDFYLFATDELIQWIELLFADTPLRRNAIDDIYEIRGTALDD

Legend:
[1] = target: B3; assay: SEC
[2] = target: T1, Sec39p, full-length (residues 1-709); assay: SEC
[3] = target: T2, Dsl1p residues 37-339, as the …; assay: crystal structure
[4] = target: T3, Dsl1p, full-length (residues 1-754); assay: SEC
Dsl1p-Sec39p complex = target: T4, Dsl1p-Sec39p complex; assay: SEC

Binder: B1
- binding result [1]: binds

Binder: B2
- binding result [2]: binds

- binding result [3]: binds
Binder: MNGIDDLLNINDRIKQVQNERNELASKLQNLKQSLASNDT (domain or fragment, S. cerevisiae, UniProt P33891 1-40, looked up) [Tip20p residues 1-40, as the N-terminal part of the Tip20p-Dsl1p fusion protein]

Binder: B3
- binding result [4]: binds
- binding result (Dsl1p-Sec39p complex): binds

Binder: B4
- binding result [2]: binds
